pEC50: −log10 of the molar value. Where two headings read alike, the source gives them in different places.
Key:
[1] = molecular target: T1, ionotropic TRPV1 receptor (Homo sapiens, UniProt Q8NER1); assay: Eurofins functional profiling, TRPV1 agonist/antagonist; assay type: cell-based; conditions: 5 μM
T1 construct: Eurofins (contract assay)
Experimental: In vitro profiling of LIT-001 was performed by Eurofins as described in the Eurofins SafetyScreen-Functional panel, 2018[31]. The hepatotoxicity of LIT-001 was studied with cryo-preserved mouse hepatocytes. After unfreezing (optiTHAW and optiINCUBATE media, Xenotech) and cell viability control, cells (2 × 10^6 cells/ml) were dispatched in 96 well microtiterplates. LIT-001 was added to reach a concentration 1 μM in the presence of 1 × 10^6 cells/mL in a volume of 100 μl/well. The incubation was stopped at 4, 20, 40, 80 and 120 min in adding 100 μl of acetonitrile at 0 °C. A positive control was treated in the same conditions. All samples were analyzed by UHPLC coupled to a mass spectrometer (Shimadzu LC-MS 8030).

[2] = molecular target: Transient Receptor Potential Vanilloid type-1 (TRPV1); design: method as in PMID 29117570; conditions: cited from earlier work
[3] = design: method as in PMID 19183510; conditions: humans and rats; listed as OT; cited from earlier work
[4] = design: method as in PMID 6831225; conditions: rat CSF (abstract: humans and rats), cited from earlier work
[5] = stated for comparison, no reference given; cited from earlier work

T1 sequence (Q8NER1 whole entry): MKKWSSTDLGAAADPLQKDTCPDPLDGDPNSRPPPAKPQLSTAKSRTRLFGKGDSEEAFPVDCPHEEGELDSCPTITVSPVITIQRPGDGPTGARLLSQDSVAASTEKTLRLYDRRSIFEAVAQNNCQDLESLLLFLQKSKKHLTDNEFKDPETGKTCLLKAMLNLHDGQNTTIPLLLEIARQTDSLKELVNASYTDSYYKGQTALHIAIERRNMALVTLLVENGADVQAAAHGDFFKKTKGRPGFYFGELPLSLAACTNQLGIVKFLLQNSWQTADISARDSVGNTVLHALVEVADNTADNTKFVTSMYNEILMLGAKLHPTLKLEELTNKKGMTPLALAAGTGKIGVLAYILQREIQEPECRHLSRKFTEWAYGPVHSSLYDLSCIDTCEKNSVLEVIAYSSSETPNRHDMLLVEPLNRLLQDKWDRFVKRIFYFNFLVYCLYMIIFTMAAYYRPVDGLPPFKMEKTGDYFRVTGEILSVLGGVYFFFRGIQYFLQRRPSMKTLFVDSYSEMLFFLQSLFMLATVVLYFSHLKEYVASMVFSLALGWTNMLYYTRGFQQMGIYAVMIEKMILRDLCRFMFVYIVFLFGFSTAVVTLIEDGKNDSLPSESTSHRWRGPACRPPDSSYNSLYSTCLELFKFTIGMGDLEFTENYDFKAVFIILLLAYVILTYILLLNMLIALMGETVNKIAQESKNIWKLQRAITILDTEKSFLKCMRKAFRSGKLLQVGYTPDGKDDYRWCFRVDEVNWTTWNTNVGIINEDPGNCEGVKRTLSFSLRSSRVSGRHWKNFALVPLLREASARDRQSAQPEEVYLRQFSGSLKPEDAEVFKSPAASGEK

## Cc1ccccc1N1CCN(S(=O)(=O)C[C@]23CC[C@H](C[C@@H]2NC(=O)[C@@H](N)CCS(C)(=O)=O)C3(C)C)CC1 [L-368,699, reference compound]
[1]
  agonist or antagonist activity at TRPV1 receptor: neither LIT-001 nor the OT antagonist L-368,699 displayed any significant agonist or antagonist activity

## Oxytocin
[2]
  pEC50: 6.50
[3]
  half-life in the blood circulation: 5 min
[4]
  half-life in cerebrospinal fluid (CSF): around twenty
[4]; listed as OT
  half-life in cerebrospinal fluid (CSF): around 20 minutes
[5]
  half-life: less than 15 min
